# Test system: MS2 coat protein
# Assay: apparent KD of MS2 coat protein; designed switch direction (-1 OFF switch, 1 ON switch): -1; higher = weaker reporter binding
# Method in brief: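 Normalised cluster fluorescence was curve-fitted, and each design's median over clusters is its apparent KD. Before this, SNAP-549-labelled MS2 coat protein was titrated from 0.7 or 1.5 nM, doubling to 3 µM, over RNA switches transcribed on Illumina chips by stalled E. coli RNA polymerase. Titrations had no input, 200 uM small-molecule ligand, or an oligonucleotide input, and steps lasted 0.8–1.5 h (lowest) to 10–20 min (highest).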
# [1] = input ligand: microRNA oligo, concentration not stated
# [2] = Eterna round: R95, input ligand: FMN 200 uM
# [3] = Eterna round: R95, input ligand: microRNA oligo, concentration not stated
# [4] = Eterna round: R95, input ligand: none
Sequence,apparent KD of MS2 coat protein (input ligand: FMN 200 uM) [nM],apparent KD of MS2 coat protein [1] [nM],apparent KD of MS2 coat protein (input ligand: none) [nM],apparent KD of MS2 coat protein [2] [nM],apparent KD of MS2 coat protein [3] [nM],apparent KD of MS2 coat protein [4] [nM]
"AAAUAUCAUGUAGGAUAUGGAAGGCGAACCUAUCCAGAAGGACAUGAGGAUCACCCAUGUGCUGAGUUGUCCGUAGACAGCUCU [Ex NG1 #3] (Eterna round: R96, puzzle: Exclusion NG 1)",168,27.1,31,–,–,–
"GGGCCCGGUGUGAGGAUAUCGGGCUCGAAAGGGCUCGAGAAGGCACAUGAGGAUCACCCAUGUAAGCCGGGCCC [-42.6, -40.5 kcal, A 23%, 4-0] (Eterna round: R97, puzzle: Brourd's mod of Exclusion 4)",15.2,–,18.6,–,–,–
"AGUACUUUCACGAAAGUGAAAGUACAAUAAGCUUGUGGAACAUGAGGAUCACCCAUGUCCUCAUAAGCUCGUCUUAU [Mat - Sensor v3 - Turn-off var 2 - D32] (puzzle: Sensor v3, turn-off variant 2)",–,–,–,17.3,72.5,15.5
"AAUCUACAUGUAGGAUAUGCGUGGCGAAGCUAUGCAGAAGGACAUGAGGAUCACCCAUGUUUUAGCGUCUGCGUACAGAUGCGA [Mat - Exclusion NG 1 - Mod of JL - D99] (Eterna round: R96, puzzle: Exclusion NG 1)",269,24.4,27.2,–,–,–
CUUUUGUGAGGAUAUCAGUAGUAGAACAAUAGUACUACUACUGAGAAGGCACAUGAGGAUCACCCAUGUUCCUC [Fiskers Ex 4 Super stable 44 mod 2] (puzzle: Exclusion 4),–,–,–,–,52.3,–
"GUACUGAAGCUUUGCUUUAAUCGUACAUGAGGAUCACCCAUGUAGGAUAUGGUAGGCAAAGCUUACCAGAAGGACAGAGUGAUC [Mat - Exclusion NG 3 - Mod of JL - D67] (Eterna round: R96, puzzle: Exclusion NG 3)",103,92.1,93.1,–,–,–
"AUUCUCUCGGUGAGGAUAUGAGUAACGACGGCAGAUUAGAAGGUACAUGAGGAUCACCCAUGUGUGUUUGGGAU [Eternabot (L1) Solution 75] (Eterna round: R97, puzzle: Brourd's mod of Exclusion 4)",41.7,–,47.5,–,–,–
GGUGCGUAUGUGAGGAUAUGCUGGUCCUUGGAUCCGCAGAAGGCACAUGAGGAUCACCCAUGUGGUGUCGUACC [salish99_Bmod_Ex4_022] (puzzle: Brourd's mod of Exclusion 4),–,–,–,–,139,–
"UCUUAGUCAGGAUAUACAUGAGGAUCACCCAUGUAAAAUUUUAAUUUAAUUUUAAGGUGUAGAAGGGACCACCC [Ex3 #17] (Eterna round: R97, puzzle: Exclusion 3)",33.2,–,37.5,–,–,–
"GUUCCACAUGAGGAUCACCCAUGUGAGGAUAUGGUUUCGCUGGCCGUAGCCAGUGGAACCAGAAGGCGCGUGAU [Mat - Exclusion 1 - JL Mod - D19] (Eterna round: R97, puzzle: Exclusion 1)",80.8,–,67.3,–,–,–
"AUGUGCACGCUGCGGUCCUACAUGAGGAUCACCCAUGUGGUCUGGUGGCGUGGGUCACCGGACUUGGCUCGUCUUGG [salish99_S_TOV1_R5_057] (Eterna round: R97, puzzle: Sensor, turn-off variant 1)",22.4,–,24.3,–,–,–
"GAAGAAGAGAGAAUAGAAAACAUGAGGAUCACCCAUGUGAGAAGAUGAGGGUGUAAUAGGCUUUUGGCUCGUCUUAU (puzzle: Sensor v3, turn-off variant 1)",–,–,–,37.9,89.7,47.2
"AUAUUGUGAGGAUAUGAACUUAGUAUCGAAAGAUUCUAAGUUCAGAAGGCACAUGAGGAUCACCCAUGUUUCUC [Long static hairpin v20] (Eterna round: R97, puzzle: Exclusion 4)",808,–,81.9,–,–,–
"UCACGGGACUAAGGAUAUAUGUGUACCAUUUUCAUAGAAGGUAGAAUGUUUGAUCAUAAACUAAACAUGAGGAUCACCCAUGUU [JR_ExcNG1_Sub091] (Eterna round: R96, puzzle: Exclusion NG 1)",–,20.6,–,–,–,–
UCUCGACAUGAGGAUCACCCAUGUCAGGAUAUUGUAUUGGAGGUGUUUAACCUUAUGGCAAGAAGGGAUGUGUG [LRO-Excl1-25] (puzzle: Exclusion 1),–,–,–,–,22.9,–
ACACAACAUGAGGAUCACCCAUGUCAGGAUAUGCAGAACAAGAACAAGACAAGACAGAGCAGAAGGGACAACAC [Ex 1 M5] (puzzle: Exclusion 1),–,–,–,–,32.8,–

Sequence,apparent KD of MS2 coat protein (input ligand: FMN 200 uM) [nM],apparent KD of MS2 coat protein [1] [nM],apparent KD of MS2 coat protein (input ligand: none) [nM],apparent KD of MS2 coat protein [2] [nM],apparent KD of MS2 coat protein [3] [nM],apparent KD of MS2 coat protein [4] [nM]
"ACGGCAUAAGGAUAUGCAAGGUGCUGACUUCCUCCGUCAUUACAUGAGGAUCACCCAUGUAGAAGGUAUGUACC [Eternabot (Original) Solution 9] (Eterna round: R97, puzzle: Exclusion 2)",18.4,–,18.5,–,–,–
"UACCGGCGGACCGAGGCUUUUUGCUCGUCUUAUGCUACGACAUGAGGAUCACCCAUGUGGUGGUGGUCCGUUGUAGU [JL ViennaUCT Bitein mod 7] (puzzle: Sensor v3, turn-off variant 2)",–,–,–,106,13.3,122
"UUGGCAGGUUUUUUGUUUGACAUGAGGAUCACCCAUGUUGCGUGGGUUGUGGGUGGGCGGUGUUUAUUUAUGGUUCU [-16.5, -38.6 kcal, A 12%] (Eterna round: R97, puzzle: Sensor, turn-off variant 1)",43.1,–,48.4,–,–,–
"UAAAAGAUGGACGAACCACAUGAGGAUCACCCAUGUCGAGGUUAGGAUAUGUCGUCCAUGGGACCACAGAAGGGACUGAAGACU [Teraqu] (Eterna round: R96, puzzle: Exclusion NG 3)",16,11.3,20.2,–,–,–
"CAGUGACAUGAGGAUCACCCAUGUCAGGAUAUCUGUACCAUCCGACGGAGGUCCAGACAGAGAAGGGACUUGGG [Eternabot (L1) Solution 31] (Eterna round: R97, puzzle: Exclusion 1)",76.9,–,49.9,–,–,–
GGUUGGCGAGGAUAUACAUGAGGAUCACCCAUGUGAGAGAAAAGAGUGAGGAAGAAAAGUAGAAGGCGCUGACG [salish99_ex3_r3_006] (puzzle: Exclusion 3),–,–,–,55.9,69.8,76.1
"CUAAGUUGGUAAGGAUAUCCUACAUUAUUCUGACCCGUGCAAGCUACAUGAGGAUCACCCAUGUGGGAGAAGGUGCGUUAAAGU [Design 4] (Eterna round: R96, puzzle: Exclusion NG 2)",23.7,21.3,24,–,–,–
GAUCUGACAGGAUAUACAUGAGGAUCACCCAUGUGCGAGCUAGCGAAAGCUAGCUCAGGUAGAAGGGUCAGAUC [Ex3 dot plot directed] (puzzle: Exclusion 3),–,–,–,–,11.6,–
"AACGAUACGCUCAUAAGAACAUGAGGAUCACCCAUGUGUGGUGAGGAUAUCCACCCAGAGGGAAAGGAGAAGGUACCAGUGGGC [Ries] (Eterna round: R96, puzzle: Exclusion NG 3)",31.3,61.8,61,–,–,–
"CCCAUGUCAGGAUAUUAGAUACUGCCGCAAAACAAAGGCAUUGAGAAGGGACAUGAGGAUCACCCAUGUAAAAC [Soraxerila] (Eterna round: R97, puzzle: Exclusion 4)",112,–,326,–,–,–
CUCGGACAUGAGGAUCACCCAUGUGAGGAUAUGGCGCUAUCGUCAUUAGACGAUUGCGCCAGAAGGCACAAAUG [LRO-Excl1-27] (puzzle: Exclusion 1),–,–,–,–,80.7,–
UGAUGUUGAUAGGAUAUACAGGUAGGAGUAGGAGUAGAAGGAUCUACAUGAGGAUCACCCAUGUAGGAGUGAGA [JR_E6_Sub001] (puzzle: Exclusion 6),–,–,–,21.7,12.5,16.4
AAAUAACUAGGAUAUCGAGGCACAGACAUGAGGAUCACCCAUGUGUGGUCUUCGUGCUUACGAGAAGGAGUACGGC [Teceri] (puzzle: Exclusion 5),–,–,–,55.6,168,83.3
"GCCUCACUUGAGGAUCACCCAAGUCAGGAUAUAUCACUAGCGUGGAAACCACGCUGGCAUAGAAGGGACAAAGA [Ergeeddi] (Eterna round: R97, puzzle: Exclusion 1)",27.1,–,17.3,–,–,–
"ACUAAUUGAGGAUAUACAAGAAUUAACAUGAGGAUCACCCAUGUUCUUAUUUGAAUUAAAGUAGAAGGCAGAAGAA [JR_Ex5_Sub063] (Eterna round: R97, puzzle: Exclusion 5)",16,–,28.9,–,–,–

# From the supplement of paper PMC9170038
